Experimental data as given in patent US20260022171A1 (23ANDME, published 2026).
Substitutions are numbered along the chain they refer to.

T1: hu-CD200R1-iso4-Alt ECD (human)
T1 construct: also called isoform 4 alt
T1 chain: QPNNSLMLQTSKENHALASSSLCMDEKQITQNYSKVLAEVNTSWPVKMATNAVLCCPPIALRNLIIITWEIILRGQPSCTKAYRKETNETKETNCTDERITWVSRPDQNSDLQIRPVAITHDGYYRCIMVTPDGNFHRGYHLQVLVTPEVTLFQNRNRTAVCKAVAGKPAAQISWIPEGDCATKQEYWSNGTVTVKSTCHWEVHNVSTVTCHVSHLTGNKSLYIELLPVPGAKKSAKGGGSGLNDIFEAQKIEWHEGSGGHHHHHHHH

T2: hu-CD200R1-iso4-Ref ECD (human)
T2 chain: T1 chain with R84K, P116T, Q172H

T3: hu-CD200R1-iso1-Ref ECD (human)
T3 chain: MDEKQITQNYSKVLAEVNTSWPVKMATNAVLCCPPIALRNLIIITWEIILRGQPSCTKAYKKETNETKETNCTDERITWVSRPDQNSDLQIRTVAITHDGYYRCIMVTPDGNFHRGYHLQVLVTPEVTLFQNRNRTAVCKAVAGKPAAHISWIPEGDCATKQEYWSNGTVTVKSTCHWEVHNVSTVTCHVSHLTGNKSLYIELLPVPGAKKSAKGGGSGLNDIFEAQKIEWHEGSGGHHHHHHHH

T4: hu-CD200R1-iso1-Alt ECD (human)
T4 chain: T3 chain with K61R, T93P, H149Q

B1: cyno-CD200R1 ECD (receptor)
chain: AAQSNNSLMLQTSKENHTLASNSLCMDEKQITQNHSKVLAEVNISWPVQMARNAVLCCPPIEFRNLIVITWEIILRGQPSCTKTYRKDTNETKETNCTDERITWVSTPDQNSDLQIHPVAITHDGYYRCIMATPDGNFHRGYHLQVLVTPEVTLFESRNRTAVCKAVAGKPAAQISWIPAGDCAPTEQEYWGNGTVTVKSTCHWEGHNVSTVTCHVSHLTGNKSLYIELLPVPGAKKSAKLGGGSGLNDIFEAQKIEWHEGSGGHHHHHHHH
notes: also called cynomolgus monkey CD200R1; MfCD200R1 (recombinant)
B2: h22.1 (humanized 22.1 IgG) (antibody, V domains shown)
VH: EVQLVQSGAEVKKPGASVKVSCKASGYTFTSYVMFWVRQAPGQRLEWIGYINPYNDDTKYNEKFKGRATLTSDKSASTAYMELSSLRSEDTAVYYCAREDYYGSRFVYWGQGTLVTVSS
VL: DIQLTQSPSSLSASVGDRVTITCRASKSVSTSGYSYMHWYQQKPGKPPKLLIYLASNLESGVPSRFSGSGSGTDFTLTISSLQPEDFATYYCQHNRELLTFGGGTKVEIKR
B3: h10F6.V1 (antibody, IgG1, V domains shown)
VH: EVQLQESGPGLVKPSETLSLTCTVSGFSLTNYRVSWVRQPPGKGLEWLGVMYAGGGTNYNSVFKSRLTISKDNSKNQVSLKLSSVTAADTAVYYCARERPLTGVMDNWGQGTLVTVSS
VL: DIVLTQSPDSLAVSLGERATINCRASESVDYSGNSFMHWFQQKPGQPPKLLIYRASNLESGIPDRFSGSGSRTDFTLTISSLQAEDVAVYYCHQSNWDPPTFGGGTKVEIKR
notes: differs by 3 residues in the heavy chain CDRs and 1 in the light chain CDRs; also called surrogate antibody
B4: h10F6.V2 (antibody, IgG1, V domains shown)
VH: B3 VH with R33W, V50T, Y52W, V104P, N107Y
VL: B3 VL with W97E
notes: IgG1 variant of h10F6
B5: h10F6.V3 (antibody, IgG1, V domains shown)
VH: B3 VH
VL: B3 VL with W97E
notes: IgG1 variant of h10F6
B6: h10F6.V4 (antibody, IgG1, V domains shown)
VH: B3 VH with R33W, V50T, Y52W, V104P, N107Y
VL: B3 VL
notes: IgG1 variant of h10F6

How the values were obtained:
[1] = target: T5, cyno-CD200-Fc (cynomolgus monkey); assay: ELISA: biotinylated MfCD200R1 (0.12 ug/ml) on plate-immobilised Fc-tagged MfCD200, HRP-streptavidin, OD450
T5 construct: also called MfCD200-Fc; Fc-tagged MfCD200
Description: (§1) Binding was evaluated by incubating with HRP-streptavidin and colorimetric substrate, followed by monitoring the OD450 in each well.

[2] = target: T1, hu-CD200R1-iso4-Alt ECD; assay: SPR Biacore 8K 37C; biotin-CD200R1 captured, antibody analyte
Description: (§2) For kinetics measurements, 3 nM biotinylated human CD200R1. […] The sensorgram was recorded and subject to reference and buffer subtraction before evaluating by BIACORE® 8K Evaluation Software (version 1.1.1.7442).
(§3) Association rates (kₒₙ) and dissociation rates (koff) were calculated using a simple one-to-one Langmuir binding model. The equilibrium dissociation constant (KD) was calculated as the ratio of koff/kₒₙ.

[3] = target: T2, hu-CD200R1-iso4-Ref ECD; assay: as above
Description: as §2, §3

[4] = target: T3, hu-CD200R1-iso1-Ref ECD; assay: as above
Description: as §2, §3

[5] = target: T4, hu-CD200R1-iso1-Alt ECD; assay: as above
Description: as §2, §3

[6] = target: T1, hu-CD200R1-iso4-Alt ECD; assay: blocking ELISA; biotin-CD200R1 + antibody dilutions on coated hu-CD200-Fc
Description: (§4) After removing the coating solution, unspecific binding was blocked with PBS containing 1% bovine serum albumin (BSA) and incubation at room temperature for one hour. Plates were then washed five times in PBS with 0.05% TWEEN®-20 (wash buffer).

[7] = target: T2, hu-CD200R1-iso4-Ref ECD; assay: as above
Description: as §4

[8] = target: T3, hu-CD200R1-iso1-Ref ECD; assay: as above
Description: as §4

[9] = target: T4, hu-CD200R1-iso1-Alt ECD; assay: as above
Description: as §4

[10] = target: T2, hu-CD200R1-iso4-Ref ECD; assay: blocking ELISA; biotin-hu-CD200R1 + antibody dilutions on coated hu-CD200-Fc
Description: as §4

[11] = target: B1; assay: blocking ELISA; biotin-cyno-CD200R1 + antibody dilutions on coated cyno-CD200-Fc
[12] = target: B1; assay: SPR binding affinity to recombinant MfCD200R1
[13] = target: T1, hu-CD200R1-iso4-Alt ECD; assay: SPR Biacore 8K 37C; antibody on Protein A chip, CD200R1 analyte;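 further: sensorgrams corrected by subtracting reference and buffer signals, then analysed with Biacore 8K Evaluation Software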
Description: (§5) The sensorgram was recorded and subject to reference and buffer subtraction before evaluation by BIACORE®8K Evaluation Software (version 1.1.1.7442). Association rates (kₒ₀) and dissociation rates (koff) were calculated using a simple one-to-one Langmuir binding model.

[14] = target: T2, hu-CD200R1-iso4-Ref ECD; assay: as above
Description: as §5

[15] = target: B1; assay: as above
Description: as §5

[16] = target: B1; assay: Biacore, binding to MfCD200R1
[17] = target: B1; assay: blocking ELISA, MfCD200R1 to immobilized MfCD200
Description: as §1

T5 sequence (chain, as listed by the source limits assumed): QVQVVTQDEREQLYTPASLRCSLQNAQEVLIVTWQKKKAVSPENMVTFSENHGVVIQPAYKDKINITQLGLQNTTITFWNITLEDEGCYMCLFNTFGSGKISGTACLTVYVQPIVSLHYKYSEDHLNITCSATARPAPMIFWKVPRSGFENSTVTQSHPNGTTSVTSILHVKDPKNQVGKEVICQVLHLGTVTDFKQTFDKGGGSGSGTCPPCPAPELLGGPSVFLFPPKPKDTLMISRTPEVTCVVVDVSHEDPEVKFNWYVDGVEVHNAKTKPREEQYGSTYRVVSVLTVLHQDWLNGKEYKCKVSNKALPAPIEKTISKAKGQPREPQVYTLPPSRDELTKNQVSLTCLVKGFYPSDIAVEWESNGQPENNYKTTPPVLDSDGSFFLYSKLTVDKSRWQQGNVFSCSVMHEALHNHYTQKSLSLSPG

B1: binds [1].

For B2, the Kd [2] was 1.92 nM, the koff [2] was 0.00116 s⁻¹ and the kon [2] was 604000 M⁻¹ s⁻¹. It also gave a Kd [3] of 1.92 nM, a koff [3] of 0.00115 s⁻¹ and a kon [3] of 598000 M⁻¹ s⁻¹. The Kd [4] was 0.501 nM, the koff [4] was 0.00151 s⁻¹ and the kon [4] was 3.02e+06 M⁻¹ s⁻¹. It also gave a Kd [5] of 0.535 nM, a koff [5] of 0.00166 s⁻¹ and a kon [5] of 3.11e+06 M⁻¹ s⁻¹. For the same binder, the IC50 [6] was 4.59 nM, the IC50 [7] was 5.32 nM and the IC50 [8] was 5.86 nM. The IC50 [9] was 7.45 nM.

For B3, the IC50 [10] was 0.58 nM, the IC50 [11] was 2.44 nM and the Kd [12] was 2.63 nM. The Kd [13] was 0.814 nM, the koff [13] was 0.00117 s⁻¹ and the kon [13] was 1.44e+06 M⁻¹ s⁻¹. It also gave a Kd [14] of 0.716 nM, a koff [14] of 0.000964 s⁻¹ and a kon [14] of 1.35e+06 M⁻¹ s⁻¹. For the same binder, the Kd [15] was 10.5 nM, the koff [15] was 0.00457 s⁻¹ and the kon [15] was 436000 M⁻¹ s⁻¹. The Kd [16] was 2.63 nM and the IC50 [17] was 2.45 nM.

In the case of B4, the IC50 [10] is reported as 4.79 nM, the IC50 [11] is reported as 4.25 nM and the Kd [13] is reported as 6.68 nM. It also gave a koff [13] of 0.00425 s⁻¹, a kon [13] of 635000 M⁻¹ s⁻¹ and a Kd [14] of 6.04 nM. The koff [14] was 0.00367 s⁻¹, the kon [14] was 607000 M⁻¹ s⁻¹ and the Kd [15] was 16.3 nM. It also gave a koff [15] of 0.00351 s⁻¹ and a kon [15] of 216000 M⁻¹ s⁻¹.

For B5, the IC50 [10] was 0.56 nM, the IC50 [11] was 11.4 nM and the Kd [13] was 0.935 nM. For the same binder, the koff [13] was 0.00191 s⁻¹, the kon [13] was 2.04e+06 M⁻¹ s⁻¹ and the Kd [14] was 0.817 nM. The koff [14] was 0.00153 s⁻¹, the kon [14] was 1.88e+06 M⁻¹ s⁻¹ and the Kd [15] was 60.7 nM. It also gave a koff [15] of 0.0195 s⁻¹ and a kon [15] of 322000 M⁻¹ s⁻¹.

B6 was tested, and the IC50 [10] was 10.9 nM, the IC50 [11] was 2.15 nM and the Kd [13] was 9.99 nM. For the same binder, the koff [13] was 0.00387 s⁻¹, the kon [13] was 388000 M⁻¹ s⁻¹ and the Kd [14] was 8.93 nM. The koff [14] was 0.00336 s⁻¹, the kon [14] was 377000 M⁻¹ s⁻¹ and the Kd [15] was 5.87 nM. For the same binder, the koff [15] was 0.00113 s⁻¹ and the kon [15] was 193000 M⁻¹ s⁻¹.
